From patent publication US20110104789A1 come the findings set out here.

Assay [1] deals with human EF-2 mutant (G717R) (human) (UniProt P13639). Nature of the assay: cell-based or functional assay.
Assay [2] concerns the target human elongation factor 2 (EF-2) (human) (UniProt P13639). Description: cell-based or functional assay.

Regarding “DT-A(176) (from UniProt P00587 26-210) (enzyme)”, in assay [1], the GFP-positive cells relative to control vector pNL-GFP-RRE-SA, DT-resistant EF-2 mutant cell line 5H7 is 70 to 80%.
For the substance “DT-A(E148D) (from UniProt P00587 26-210) (enzyme)”, the GFP-positive cells relative to control vector pNL-GFP-RRE-SA, DT-resistant EF-2 mutant cell line 5H7 in assay [1] fell in the range of 70 to 80%.
In assay [1], “DT-A(E148S) (from UniProt P00587 26-210) (enzyme)” displayed a GFP-positive cells relative to control vector pNL-GFP-RRE-SA, DT-resistant EF-2 mutant cell line 5H7 of 70 to 80%.
The substance “DT-AΔN (from UniProt P00587 39-210) (enzyme)” showed a GFP-positive cells relative to control vector pNL-GFP-RRE-SA, DT-resistant EF-2 mutant cell line 5H7 in assay [1] of 70 to 80%.
On to “wild type diphtheria toxin A chain (DT-A) (from UniProt P00587 26-210) (enzyme)”, for which, in assay [1], the GFP-positive cells after cotransfection with pNL-DT-GFP-RRE-SA plus pCMVΔR8.2, EF-2 mutant clone 4H10 (FIG. 4A) came to 14%; the GFP-positive cells after cotransfection with pNL-DT-GFP-RRE-SA plus pCMVΔR8.2, EF-2 mutant clone 5E12 (FIG. 4A) is 9%; the GFP-positive cells after cotransfection with pNL-DT-GFP-RRE-SA plus pCMVΔR8.2, EF-2 mutant clone 5H7 (FIG. 4A) turned out to be 46%; the GFP-positive cells after cotransfection with pNL-DT-GFP-RRE-SA plus pCMVΔR8.2, EF-2 mutant clone AB1 (FIG. 4A) is 24%. In assay [1], the GFP-positive cells after cotransfection with pNL-DT-GFP-RRE-SA plus pCMVΔR8.2, EF-2 mutant clone CB2 (FIG. 4A) is 28%; the GFP-positive cells, 5H7 cells (FIG. 4B; control pNL-DT(R)-GFP-RRE-SA gave 64%) stood at 54%; the share of 5H7 cells surviving the toxin was above 80%. In assay [2], the GFP-positive cells after cotransfection with pNL-DT-GFP-RRE-SA plus pCMVΔR8.2, parental HEK293T cells (FIG. 4A) is 0% and the GFP-positive cells, HEK293T cells (FIG. 4B; control pNL-DT(R)-GFP-RRE-SA gave 43%) was 0%.
